Assays:
Format in all cases: cell-based, human
[1] = tested on: AML cell lines; experiment: Apoptosis (AnnexinV/7AAD) in AML cell lines; conditions: 50 μg/ml, forty-eight hours, vs IgG control
Protocol: FIG. 9. […] Forty-eight hours after IgG control vs. @E7 antibody treatment (50 μg/ml) of AML cell lines apoptosis was evaluated by AnnexinV/7AAD staining. * indicates P<0.05, ** indicates P<0.01.
For the evaluation of apoptosis, cells were stained with Annexin V and 7-AAD as previously described^16, 21 For the evaluation of cell proliferation, AML cell lines were incubated with BrdU, fixed, permeabilized and stained with APC-conjugated anti-BrdU antibody, according to the instructions of the manufacturer (BD Biosciences) and as previously described^16, 21 The proliferating fraction of the cells (i.e., the BrdU positive cells) was evaluated with flow cytometry (LSRII, BD Biosciences). For cell differentiation analysis, cells were stained with an anti-CD11B antibody (BD Biosciences) and analyzed by flow cytometry.

[2] = tested on: HEY1 mRNA; experiment: HEY1 mRNA qRT-PCR in primary AML blasts; conditions: 100 μg/ml, 2 and 10 h, vs IgG
Protocol: FIG. 26. Blocking EGFL7 increases the NOTCH downstream target, HEY1, in human AML patient blasts (A) Primary blasts from AML patients were cultured in SFEM medium with 10% FBS in the absence or presence of 100 μg/ml of IgG or anti-human EGFL7 antibody for 2 and 10 h. Total RNAs were extracted for qRT-PCR analysis of HEY1 mRNA with β-ACTIN as internal control. *p<0.05, ***p<0.001 vs IgG; ns=not significant.
Total RNA was extracted using Trizol reagent (Invitrogen, Carlsbad, Calif., USA). cDNA was synthesized using SuperScript III reagents (Invitrogen) according to the manufacturer's instruction. Quantitative Real-Time RT-PCR was performed using commercially available TaqMan Gene Expression Assay primers and the 7900HT Fast Real-Time PCR System (Applied Biosystems, Foster City, Calif., USA). The expression levels of target genes were normalized to β-ACTIN. Relative expression was calculated by using the comparative 2^−ΔΔct method.

[3] = tested on: THP-1 cells; experiment: Apoptosis (AnnexinV+ FACS), THP-1; conditions: anti-EGFL7 treatment
Protocol: (§1) FIG. 24A-24G. EGFL7 prevents activation of NOTCH signaling in AML cells. (FIG. 24A) Overview of experiments using DLL4-FC and IgG-FC control coated plates to induce NOTCH activation. (FIG. 24B) THP-1 cells were pre-treated with 10 μM γ-secretase inhibitor (AVA), 100 μg/ml anti-EGFL7 antibody or 0.25 μM rEGFL7 for 30 min, then transferred to IgG-Fc or DLL4-Fc coated plates. After 4 h of incubation total RNA from THP-1 cells was extracted for qRT-PCR analysis of HES1 with β-ACTIN as internal control. ^###P<0.001 DLL4-FC vs IgG-FC; ***P<0.001 DLL4+AVA, DLL4+rEGFL7, and DLL4+anti-EGFL7 vs DLL4-FC. […] THP-1 cells were treated with the indicated concentration of anti-EGFL7 (@E7) then assessed for apoptosis using (FIG. 24D) AnnexinV+ staining and FACS; *P<0.05 (FIG. 24E) Immuno-blotting for PARP1 and Casp3 cleavage. (FIG. 24F) Cell differentiation was assessed by CD11B and CD14 staining 96-hours post anti-EGFL7 treatments; *P<0.05. (FIG. 24G) To determine whether activation of NOTCH by DLL4-Fc could be accentuated by anti-EGFL7 treatment, THP-1 cells were first treated with anti-EGFL7 (100 μg/ml) and then cultured on DLL4-FC or IgG-Fc coated plates and then assessed for apoptosis using AnnexinV+ staining and FACS. *P<0.05 DLL4-Fc and anti-EGFL7; vs DLL4-FC+anti-EGFL7. […]

[4] = tested on: PARP1 and CASP3 cleavage; experiment: PARP1 and Casp3 cleavage immunoblot, THP-1; conditions: anti-EGFL7 treatment, western blots
Protocol: as §1

B1: Parsatuzumab: Anti-human EGFL7 therapeutic antibody (Parsatuzumab) obtained from Creative Biolabs; blocking monoclonal antibody (antibody, chains of the INN, looked up, V domains shown)
VH: EVQLVESGGGLVQPGGSLRLSCAASGYTFIDYYMNWVRQAPGKGLEWVGDINLDNSGTHYNQKFKGRFTISRDKSKNTAYLQMNSLRAEDTAVYYCAREGVYHDYDDYAMDYWGQGTLVTVSS
VL: DIQMTQSPSSLSASVGDRVTITCRTSQSLVHINAITYLHWYQQKPGKAPKLLIYRVSNRFSGVPSRFSGSGSGTDFTLTISSLQPEDFATYYCGQSTHVPLTFGQGTKVEIK
apoptosis (AnnexinV/7AAD) [1]: increased apoptosis | HEY1 mRNA [2]: increases were also observed | AnnexinV+ apoptotic cells [3]: increase in AnnexinV+ | PARP1 and CASP3 cleavage [4]: increase in PARP1 and CASP3 cleavage
